Target: the molecule itself
Test: self-association (homodimerization), observed with NMR (FIG. 3A-3C)

B1: HP-7 polypeptide (SEQ ID NO: 7) (peptide)
chain: GEIWKQHEDALQKFEEALNQFEDLKQLGGSGCGSGGEIWKQHEDALQKFEEALNQFEDLKQL
notes: also called free HP-7
  binding result: binds

— patent publication US20120034671A1 (RESEARCH FOUNDATION OF THE CITY UNIVERSITY OF NEW YORK, published 2012)
